Experimental data from patent US20220193132A1 (NATIONAL RESEARCH COUNCIL OF CANADA, published 2022).

T1: EGFRvIII fragment amino acid residues 15 to 37, displayed on yeast (human)
T1 construct: also called aa 15-37; fragment 15-37
T1 peptide: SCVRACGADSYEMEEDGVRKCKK

T2: EGFRvIII amino acid residues 15 to 37 with Asp23 to Ala mutation (human)
T2 construct: mutation is already in the entry
T2 peptide: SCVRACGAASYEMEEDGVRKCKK

T3: EGFRvIII amino acid residues 15 to 37 with Gly31 to Ala mutation (human)
T3 construct: mutation is already in the entry
T3 peptide: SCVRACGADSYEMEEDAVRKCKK

T4: EGFRvIII amino acid residues 15 to 37 with Asp30 to Ala mutation (human)
T4 construct: mutation is already in the entry
T4 peptide: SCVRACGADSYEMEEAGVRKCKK

T5: EGFRvIII amino acid residues 15 to 37 with Cys16 to Ala mutation (human)
T5 construct: mutation is already in the entry
T5 peptide: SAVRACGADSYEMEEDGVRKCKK

T6: EGFRvIII amino acid residues 15 to 37 with Ser15 to Ala mutation (human)
T6 construct: mutation is already in the entry
T6 peptide: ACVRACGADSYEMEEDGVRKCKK

T7: EGFRvIII amino acid residues 15 to 37 with Tyr25 to Ala mutation (human)
T7 construct: mutation is already in the entry
T7 peptide: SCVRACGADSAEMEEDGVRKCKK

T8: EGFRvIII amino acid residues 15 to 37 with Ser24 to Ala mutation (human)
T8 construct: mutation is already in the entry
T8 peptide: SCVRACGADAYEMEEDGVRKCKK

T9: EGFRvIII amino acid residues 15 to 37 with Glu29 to Ala mutation (human)
T9 construct: mutation is already in the entry
T9 peptide: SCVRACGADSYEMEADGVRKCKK

T10: EGFRvIII amino acid residues 15 to 37 with Glu28 to Ala mutation (human)
T10 construct: mutation is already in the entry
T10 peptide: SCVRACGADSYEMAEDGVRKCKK

T11: EGFRvIII amino acid residues 15 to 37 with Val32 to Ala mutation (human)
T11 construct: mutation is already in the entry
T11 peptide: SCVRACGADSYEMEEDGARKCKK

T12: EGFRvIII amino acid residues 15 to 37 with Lys37 to Ala mutation (human)
T12 construct: mutation is already in the entry
T12 peptide: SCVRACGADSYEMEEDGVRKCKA

T13: EGFRvIII amino acid residues 15 to 37 with Lys34 to Ala mutation (human)
T13 construct: mutation is already in the entry
T13 peptide: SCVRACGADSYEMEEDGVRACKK

T14: EGFRvIII amino acid residues 15 to 37 with Val17 to Ala mutation (human)
T14 construct: mutation is already in the entry
T14 peptide: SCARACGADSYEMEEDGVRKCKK

T15: EGFRvIII amino acid residues 15 to 37 with Glu26 to Ala mutation (human)
T15 construct: mutation is already in the entry
T15 peptide: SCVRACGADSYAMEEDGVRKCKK

T16: EGFRvIII amino acid residues 15 to 37 with Arg33 to Ala mutation (human)
T16 construct: mutation is already in the entry
T16 peptide: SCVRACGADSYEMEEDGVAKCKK

T17: EGFRvIII amino acid residues 15 to 37 with Lys36 to Ala mutation (human)
T17 construct: mutation is already in the entry
T17 peptide: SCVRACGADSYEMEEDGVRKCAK

T18: EGFRvIII amino acid residues 15 to 37 with Gly21 to Ala mutation (human)
T18 construct: mutation is already in the entry
T18 peptide: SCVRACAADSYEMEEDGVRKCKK

T19: EGFRvIII amino acid residues 15 to 37 with Cys35 to Ala mutation (human)
T19 construct: mutation is already in the entry
T19 peptide: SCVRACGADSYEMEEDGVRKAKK

T20: EGFRvIII amino acid residues 15 to 37 with Arg18 to Ala mutation (human)
T20 construct: mutation is already in the entry
T20 peptide: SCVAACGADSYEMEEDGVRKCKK

T21: EGFRvIII amino acid residues 15 to 37 with Cys20 to Ala mutation (human)
T21 construct: mutation is already in the entry
T21 peptide: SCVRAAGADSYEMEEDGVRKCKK


Legend:
[1] = biological target: T22, EGFRvIII, full length, overexpressed on glioblastoma cells (human, UniProt P00533 298-623); experiment: cell-based or functional assay
[2] = biological target: T1, EGFRvIII fragment amino acid residues …; experiment: yeast surface display, flow cytometry
Excerpt: (§1) Assessment of the binding of anti-EGFRvIII mAbs to the fusion proteins expressed on yeast cell surface was done by flow cytometry analysis. Briefly, yeast cells were labeled with both the anti-hEGFRvIII mAb and chicken anti-Myc antibody, the latter being used to monitor the level of expression of the fusion protein. Following a wash step, binding of the primary antibodies is probed by a two-color indirect fluorescence labeling using secondary antibodies specific for mouse and chicken antibodies, respectively.

[3] = biological target: T23, recombinant human EGFRvIII protein (extracellular domain), native (human, UniProt P00533 298-623); experiment: ELISA Exp 2, purified mAb 1 ug/ml;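 also: ELISA of purified mAb binding to plate-coated antigen, native or heat/DTT-denatured, with pNPP substrate developed for 30 min and incubations at room temperature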
T23 construct: also called hEGFRvIII
Description: (§2) Pre- and post-immune sera titers of animals were assessed by ELISA on recombinant EGFRvIII protein. Unless otherwise stated, all incubations were performed at room temperature. […] Microplates were washed three times in PBS and blocked for 30 min with PBS containing 1% bovine serum albumin (BSA, Sigma Cat #A7030). Blocking buffer was removed and 25 μl of serial dilutions of sera samples were added. […] After a 1-h incubation, microplates were washed 4 times and 25 μl of p-nitrophenyl phosphate (pNPP) substrate (Sigma-Aldrich Canada Co., Oakville, ON) at 1 mg/ml in carbonate buffer at pH 9.6 was added and further incubated for 30 min.
(§3) Antigens at 1-2 mg/ml were incubated at 95° C. for 5 min in PBS containing DTT at a final concentration of 40 mM. They were then incubated on ice for 5 min and diluted at their final coating concentration for ELISA purpose.
(§4) ELISA was performed as described above (serum titer determination) using 25 μl of mAb supernatant (Exp 1) or purified mAb at 1 μg/ml (Exp 2).

[4] = biological target: T24, recombinant human wild type EGFR protein (extracellular domain), native (human, UniProt P00533 25-645); experiment: ELISA Exp 2, purified mAb 1 ug/ml;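 also: ELISA of purified mAb binding to plate-coated antigen, native or heat/DTT-denatured, with pNPP substrate developed for 30 min and incubations at room temperature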
T24 construct: also called wt EGFR; EGFR WT
Description: as §2, §3, §4

[5] = biological target: T25, recombinant human wild type EGFR protein (extracellular domain), denatured (human, UniProt P00533 25-645); experiment: ELISA Exp 2, purified mAb 1 ug/ml;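 also: ELISA of purified mAb binding to plate-coated antigen, native or heat/DTT-denatured, with pNPP substrate developed for 30 min and incubations at room temperature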
T25 construct: Same protein as m23 after 95 C for 5 min in PBS with 40 mM DTT (denatured, reduced); also called wt EGFR Denatured
Description: as §2, §3, §4

[6] = biological target: T26, recombinant human EGFRvIII protein (extracellular domain), denatured (human, UniProt P00533 298-623); experiment: ELISA Exp 2, purified mAb 1 ug/ml;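 also: ELISA of purified mAb binding to plate-coated antigen, native or heat/DTT-denatured, with pNPP substrate developed for 30 min and incubations at room temperature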
T26 construct: Same protein as m21 after 95 C for 5 min in PBS with 40 mM DTT (denatured, reduced); also called EGFRvIII Denatured
Description: as §2, §3, §4

[7] = biological target: T2, EGFRvIII amino acid residues 15 to 37 …; experiment: yeast display flow cytometry, Myc-normalized;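 also: Anti-EGFRvIII monoclonal antibodies tested by flow cytometry on yeast displaying alanine-substituted fragments, two-color indirect fluorescence with anti-Myc signal tracking fusion protein expression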
Excerpt: as §1
(§5) To further characterize mAb epitopes within the EGFRvIII 15-37 region, an alanine scan of this region was performed, and modified fragments were expressed at the surface of the yeast. […] The resulting peptides were expressed at the surface of the yeast and each anti-EGFRvIII mAbs was tested on the corresponding yeast mutant strain by flow cytometry analysis. Thus, this assay determined the contribution of each amino acid(s) in the monoclonal antibody binding.

[8] = biological target: T3, EGFRvIII amino acid residues 15 to 37 …; experiment: yeast display flow cytometry, Myc-normalized;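 also: Anti-EGFRvIII monoclonal antibodies tested by flow cytometry on yeast displaying alanine-substituted fragments, two-color indirect fluorescence with anti-Myc signal tracking fusion protein expression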
Excerpt: as §1, §5

[9] = biological target: T4, EGFRvIII amino acid residues 15 to 37 …; experiment: yeast display flow cytometry, Myc-normalized;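 also: Anti-EGFRvIII monoclonal antibodies tested by flow cytometry on yeast displaying alanine-substituted fragments, two-color indirect fluorescence with anti-Myc signal tracking fusion protein expression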
Excerpt: as §1, §5

[10] = biological target: T5, EGFRvIII amino acid residues 15 to 37 …; experiment: yeast display flow cytometry, Myc-normalized;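 also: Anti-EGFRvIII monoclonal antibodies tested by flow cytometry on yeast displaying alanine-substituted fragments, two-color indirect fluorescence with anti-Myc signal tracking fusion protein expression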
Excerpt: as §1, §5

[11] = biological target: T6, EGFRvIII amino acid residues 15 to 37 …; experiment: yeast display flow cytometry, Myc-normalized
Excerpt: as §1, §5

[12] = biological target: T7, EGFRvIII amino acid residues 15 to 37 …; experiment: yeast display flow cytometry, Myc-normalized
Excerpt: as §1, §5

[13] = biological target: T8, EGFRvIII amino acid residues 15 to 37 …; experiment: yeast display flow cytometry, Myc-normalized
Excerpt: as §1, §5

[14] = biological target: T9, EGFRvIII amino acid residues 15 to 37 …; experiment: yeast display flow cytometry, Myc-normalized
Excerpt: as §1, §5

[15] = biological target: T10, EGFRvIII amino acid residues 15 to 37 …; experiment: yeast display flow cytometry, Myc-normalized
Excerpt: as §1, §5

[16] = biological target: T11, EGFRvIII amino acid residues 15 to 37 …; experiment: yeast display flow cytometry, Myc-normalized
Excerpt: as §1, §5

[17] = biological target: T12, EGFRvIII amino acid residues 15 to 37 …; experiment: yeast display flow cytometry, Myc-normalized
Excerpt: as §1, §5

[18] = biological target: T13, EGFRvIII amino acid residues 15 to 37 …; experiment: yeast display flow cytometry, Myc-normalized
Excerpt: as §1, §5

[19] = biological target: T14, EGFRvIII amino acid residues 15 to 37 …; experiment: yeast display flow cytometry, Myc-normalized
Excerpt: as §1, §5

[20] = biological target: T15, EGFRvIII amino acid residues 15 to 37 …; experiment: yeast display flow cytometry, Myc-normalized
Excerpt: as §1, §5

[21] = biological target: T16, EGFRvIII amino acid residues 15 to 37 …; experiment: yeast display flow cytometry, Myc-normalized
Excerpt: as §1, §5

[22] = biological target: T27, EGFRvIII amino acid residues 15 to 37 with Met27 to Ala mutation (human); experiment: yeast display flow cytometry, Myc-normalized
T27 construct: mutation is already in the entry
T27 sequence (peptide, as listed by the source, change not shown): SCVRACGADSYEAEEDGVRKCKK
Excerpt: as §1, §5

[23] = biological target: T17, EGFRvIII amino acid residues 15 to 37 …; experiment: yeast display flow cytometry, Myc-normalized
Excerpt: as §1, §5

[24] = biological target: T23, recombinant human EGFRvIII protein …; experiment: ELISA Exp 1, mAb supernatant
Description: as §2, §3, §4

[25] = biological target: T24, recombinant human wild type EGFR …; experiment: ELISA Exp 1, mAb supernatant
Description: as §2, §3, §4

[26] = biological target: T25, recombinant human wild type EGFR …; experiment: ELISA Exp 1, mAb supernatant
Description: as §2, §3, §4

[27] = biological target: T26, recombinant human EGFRvIII protein …; experiment: ELISA Exp 1, mAb supernatant
Description: as §2, §3, §4

[28] = biological target: T22, EGFRvIII, full length, overexpressed on …; experiment: flow cytometry dose-response on U87MG-EGFRvIII cells, apparent Kd
Description: Prior to analysis, cells were plated such that they were not more than 80% confluent on the day of analysis. Unless otherwise stated, all media are kept are 4° C. and all incubations are performed on wet ice. Cells were washed in PBS, harvested by the addition of cell dissociation buffer (Sigma), centrifuged and resuspended in complete medium at a cell density of 2×10⁶ cells/mL. Fifty μL/well of cells were distributed in a polypropylene v-bottom 96 well plate and serial 1/3 dilutions of purified mAbs starting at 100 nM were added and incubated for 2 hours. […] Cells were washed and re-suspended in medium containing Propidium iodide to exclude dead cells from analysis. Samples were filtered through a 60 μm nylon mesh filter plate (Millipore, Ireland) to remove cell aggregates. Flow cytometry analyses were performed on 2,000 viable single-cells events gated on forward scattering, side scattering parameters and propidium iodide dye exclusion using a BD-LSRFortessa flow cytometer (Becton-Dickinson Biosciences, CA, USA) and a standard filter set using BD FACSDiva™ acquisition software, according to manufacturer's instructions.
Specific detection of antibody binding was calculated as the mean fluorescent intensity of binding to each primary antibody after background level subtraction of the mean fluorescent intensity of binding of mouse IgG control. The data were analyzed with GraphPad Prism v 6.0 software using one-site specific binding with Hill slope non-linear regression curve fit model to determine Bmax (maximum specific binding) and Kdₐₚₚ (concentration needed to achieve a half-maximum binding at equilibrium) for each mAb tested.

[29] = biological target: T22, EGFRvIII, full length, overexpressed on …; experiment: cell-based or functional assay; remark: listed apart in the source
[30] = biological target: T18, EGFRvIII amino acid residues 15 to 37 …; experiment: yeast display flow cytometry, alanine scan
Excerpt: as §1, §5

[31] = biological target: T19, EGFRvIII amino acid residues 15 to 37 …; experiment: yeast display flow cytometry, alanine scan
Excerpt: as §1, §5

[32] = biological target: T20, EGFRvIII amino acid residues 15 to 37 …; experiment: yeast display flow cytometry, alanine scan
Excerpt: as §1, §5

[33] = biological target: T21, EGFRvIII amino acid residues 15 to 37 …; experiment: yeast display flow cytometry, alanine scan
Excerpt: as §1, §5

Binder	% internalization (pHrodo surrogate assay, vs 225 mAb) [1]	binding result [2]	ELISA absorbance 405 nm [3]	ELISA absorbance 405 nm [4]	ELISA absorbance 405 nm [5]	ELISA absorbance 405 nm [6]	% of binding vs wild-type fragment 15-37 [7]	% of binding vs wild-type fragment 15-37 [8]	% of binding vs wild-type fragment 15-37 [9]	% of binding vs wild-type fragment 15-37 [10]	% of binding vs wild-type fragment 15-37 [11]	% of binding vs wild-type fragment 15-37 [12]	% of binding vs wild-type fragment 15-37 [13]	% of binding vs wild-type fragment 15-37 [14]	% of binding vs wild-type fragment 15-37 [15]	% of binding vs wild-type fragment 15-37 [16]	% of binding vs wild-type fragment 15-37 [17]	% of binding vs wild-type fragment 15-37 [18]	% of binding vs wild-type fragment 15-37 [19]	% of binding vs wild-type fragment 15-37 [20]	further results
F263-4B3 (antibody, V domains shown, Mouse hybridoma mAb) VH: EVQLQQSGPELVKPGSSVKISCKASGYTFTDYNMDWVKQSHGKSLEWIGTINPNNGGTSYNQKFKGKATLTVDKSSNTAYMELRSLTSEDSAVYYCARGYDYDLWFAYWGQGTLVTVSA VL: EIVLTQSPALMAASPGEKVTITCSVSSSISSSNLHWYQQKSETSPKPWIYGTSNLASGVPVRFSGSGSGTSYSLTISSMEAEDAATYYCQQWSSYPLTFGAGTKLELE	61%	binds	1.19 A405	0.066 A405	0.003 A405	0.603 A405	94.1%	49.9%	94.3%	169%	94.7%	98.8%	194%	71.6%	86.7%	92.4%	170%	136%	146%	102%	% of binding vs wild-type fragment 15-37 [21]: 68.4%; % of binding vs wild-type fragment 15-37 [22]: 101%; % of binding vs wild-type fragment 15-37 [23]: 99.2%; ELISA absorbance 405 nm [24]: 1.5 A405; ELISA absorbance 405 nm [25]: 1.09 A405; ELISA absorbance 405 nm [26]: 0.041 A405; ELISA absorbance 405 nm [27]: 1.74 A405; Kd [28]: 21.2 nM; % survival (DM1 secondary-conjugate ADC surrogate assay, vs mouse IgG) [29]: 83%; binding result [30]: no binding (tested: 0-15% of wild-type binding); binding result [31]: no binding (tested: 0-15% of wild-type binding); binding result [32]: no binding (tested: 0-15% of wild-type binding); binding result [33]: no binding (tested: 0-15% of wild-type binding)
F263-5D8 (antibody, V domains shown, Mouse hybridoma mAb) VH: EVQLQQSGPDLVKPGSSVKISCKASGYTFTDYNIDWVKQSHGKSLEWIGTINPNYGGTSYNQKFKGKATLTVDKSSSTAYMELRSLTSEDSAVYYCARGYDYDLWFAYWGQGTLVTVSA VL: EIVLTQSPVFMAASPGEKVTITCSVSSSISSSNLHWYQQKSETSPKPWIYGTSNLASGVPVRFSGSGSGTSYSLTISSMEAEDAATYYCQQWSSYPLTFGAGTKLELK	64%	binds	1.49 A405	0.159 A405	0 A405	0.848 A405	106%	40.4%	80.4%	154%	93.1%	108%	246%	77.3%	81.6%	95.2%	194%	151%	144%	37.9%	% of binding vs wild-type fragment 15-37 [21]: 71.8%; % of binding vs wild-type fragment 15-37 [22]: 96.5%; % of binding vs wild-type fragment 15-37 [23]: 97.9%; ELISA absorbance 405 nm [24]: 1.43 A405; ELISA absorbance 405 nm [25]: 1.38 A405; ELISA absorbance 405 nm [26]: 0.049 A405; ELISA absorbance 405 nm [27]: 1.86 A405; Kd [28]: 19.7 nM; % survival (DM1 secondary-conjugate ADC surrogate assay, vs mouse IgG) [29]: 69%; binding result [30]: no binding (tested: 0-15% of wild-type binding); binding result [31]: no binding (tested: 0-15% of wild-type binding); binding result [32]: no binding (tested: 0-15% of wild-type binding); binding result [33]: no binding (tested: 0-15% of wild-type binding)
